This is an account of results in patent US20260116991A1.

A word on the EC50: it is the concentration at which the effect is half-maximal.

Experiment [1] deals with monkey GPC3-His protein (monkey). Kind of experiment: ELISA, monkey GPC3-His coated; antibody 0.004 nM. (In general: An ELISA detects its analyte on a solid surface through an enzyme-linked reagent.)
The target is the same in experiment [2]. Briefly: ELISA, monkey GPC3-His coated; antibody 2.67 nM.
Experiment [3] has as its target monkey GPC3 on HEK293T-monkey GPC3 cells (monkey). Briefly: FACS on HEK293T-monkey GPC3 cells.
Experiment [4] addresses monkey GPC3-His protein (monkey). Kind of experiment: ELISA, monkey GPC3-His coated; antibody 13.33 nM.
Experiment [5] has the same target. Briefly: ELISA, monkey GPC3-His coated; antibody 66.66 nM.
Experiment [6] shares this target. Kind of experiment: ELISA, monkey GPC3-His coated; antibody 0.02 nM.
Experiment [7] has the same target. Briefly: ELISA, monkey GPC3-His coated; antibody 0.0008 nM.
Experiment [8] has the same target. Kind of experiment: ELISA, monkey GPC3-His coated; antibody 0.11 nM.
The target is the same in experiment [9]. Briefly: ELISA, monkey GPC3-His coated; antibody 0.53 nM.

B1: hAb003LH1L1a (antibody, human IgG1, V domains shown)
VH: EVQLVQSGAEVKKPGSSVKVSCKASGYTFSDYEMHWVRQAPGQGLEWMGTIDPETGNTAYTQKFMDRVTITADKSTSTAYMELSSLRSEDTAVYYCTRGYSFTYWGQGTLVTVSS
VL: DIVMTQTPLSLPVTPGEPASISCRSSQNIVHSDGNTYLQWYLQKPGQSPQLLIFKVSNRFSGVPDRFSGSGSGTDFTLKISRVEAEDVGVYYCFQGSHVPFTFGQGTKLEIK
B1: the OD450 nm in [1] is 0.148; in experiment [2], 2.29; in [4], 2.35; in [5], 2.42; in experiment [6], 0.483; in [7] it was 0.087. In addition, the OD450 nm in experiment [8] is 1.48; in experiment [9], 2.2. Moreover, the EC50 in [3] turned out to be 4.77 nM. The Max MFI in [3] worked out at 22600 MFI.

B2: hAb006LH2L1b (antibody, human IgG1, V domains shown)
VH: EVQLVQSGAEVKKPGSSVKVSCKASGYTFTDYEIHWVRQAPGQGLEWMGAIDPKTGNTAYNQKFMGRVTITADKSTSTAYMELSSLRSEDTAVYYCTRYFSFAYWGQGTLVTVSS
VL: DIVMTQTPLSLPVTPGEPASISCRSSQTFVHSNANTYLQWYLQKPGQSPQLLIYKVSNRFSGVPDRFSGSGSGTDFTLKISRVEAEDVGVYYCFQGSHVPYTFGQGTKLEIK
Turning to B2, the OD450 nm came to 0.34 in [1]; 2.7 in experiment [2]; 2.46 in [4]; 2.69 in [5]; 0.924 in experiment [6]; 0.128 in experiment [7]. Also, the OD450 nm in experiment [8] is 2.1; in experiment [9] it was 2.57.

B3: hAb007LH1L1a (antibody, human IgG1, V domains shown)
VH: EVQLVQSGAEVKKPGSSVKVSCKASGYTFSDYEMHWVRQAPGQGLEWMGTIDPETGNTAYNQKFKGRVTITADKSTSTAYMELSSLRSEDTAVYYCTRPYSLTYWGQGTLVTVSS
VL: DIVMTQTPLSLPVTPGEPASISCRSSQSFVHSDGDTYLQWYLQKPGQSPQLLIYKVSNRFSGVPDRFSGSGSGTDFTLKISRVEAEDVGVYYCFQGSHVPYTFGQGTKLEIK
B3: the OD450 nm is 0.097 in [1]; 2.21 in experiment [2]; 2.44 in experiment [4]; 2.36 in [5]; 0.197 in experiment [6]; 0.067 in experiment [7]. Besides, the OD450 nm in [8] amounted to 0.605; in experiment [9], 1.57.

B4: hAb006LH3L1a (antibody, human IgG1, V domains shown)
VH: EVQLVQSGAEVKKPGSSVKVSCKASGYTFTDYEIHWVRQAPGQGLEWMGAIDPKTGNTAYNQKFMGRVTLTADKSTSTAYMELSSLRSEDTAVYYCTRYFSFAYWGQGTLVTVSS
VL: DIVMTQTPLSLPVTPGEPASISCRSSQTFVHSDGNTYLQWYLQKPGQSPQLLIYKVSNRFSGVPDRFSGSGSGTDFTLKISRVEAEDVGVYYCFQGSHVPYTFGQGTKLEIK
For the molecule B4, the OD450 nm in [1] was 0.057; in experiment [2], 1.95; in experiment [4], 2.09; in experiment [5], 2.18; in [6], 0.08; in [7] it was 0.044. Moreover, the OD450 nm in experiment [8] stood at 0.226; in experiment [9] it was 1.05.

B5: hAb007LH3L1a (antibody, human IgG1, V domains shown)
VH: EVQLVQSGAEVKKPGSSVKVSCKASGYTFTDYEMHWVRQAPGQGLEWMGTIDPETGNTAYNQKFKGRVTLTADKSTSTAYMELSSLRSEDTAVYYCTRPYSLTYWGQGTLVTVSS
VL: DIVMTQTPLSLPVTPGEPASISCRSSQSFVHSDGDTYLQWYLQKPGQSPQLLIYKVSNRFSGVPDRFSGSGSGTDFTLKISRVEAEDVGVYYCFQGSHVPYTFGQGTKLEIK
Turning to B5, the OD450 nm in experiment [1] is 0.079; in [2], 1.89; in [4] it was 2.37; in [5] it was 2.34; in experiment [6], 0.135; in experiment [7], 0.069. Further, the OD450 nm in experiment [8] amounted to 0.337; in [9] it was 1.08.

B6: hAb003LH2L1a (antibody, human IgG1, V domains shown)
VH: EVQLVQSGAEVKKPGSSVKVSCKASGYRFTDYEMHWVRQAPGQGLEWMGTIDPETGNTAYTQKFMDRVTITADKSTSTAYMELSSLRSEDTAVYYCTRGYSFTYWGQGTLVTVSS
VL: DIVMTQTPLSLPVTPGEPASISCRSSQNIVHSDGNTYLQWYLQKPGQSPQLLIFKVSNRFSGVPDRFSGSGSGTDFTLKISRVEAEDVGVYYCFQGSHVPFTFGQGTKLEIK
On to B6, for which the OD450 nm in experiment [1] was 0.16; in experiment [2], 2.17; in experiment [4] it was 2.34; in [5], 2.23; in experiment [6] it was 0.475; in experiment [7] it was 0.15. The values for the OD450 nm in experiment [8] and in [9] were 1.37 and 2.12, respectively. The same molecule displayed an EC50 in experiment [3] of 3.09 nM. The Max MFI in [3] was found to be 23200 MFI.

B7: hAb007LH1L1 (antibody, human IgG1, V domains shown)
VH: EVQLVQSGAEVKKPGSSVKVSCKASGYTFSDYEMHWVRQAPGQGLEWMGTIDPETGNTAYNQKFKGRVTITADKSTSTAYMELSSLRSEDTAVYYCTRPYSLTYWGQGTLVTVSS
VL: DIVMTQTPLSLPVTPGEPASISCRSSQSFVHSNGDTYLQWYLQKPGQSPQLLIYKVSNRFSGVPDRFSGSGSGTDFTLKISRVEAEDVGVYYCFQGSHVPYTFGQGTKLEIK
Take B7: the OD450 nm in experiment [1] is 0.122; in experiment [2] it was 2.6; in [4], 2.54; in experiment [5], 2.56; in experiment [6], 0.491; in experiment [7], 0.085. The results for the OD450 nm in experiment [8] and in experiment [9] were 1.46 and 2.43, respectively.

B8: hAb003LH2L1 (antibody, human IgG1, V domains shown)
VH: EVQLVQSGAEVKKPGSSVKVSCKASGYRFTDYEMHWVRQAPGQGLEWMGTIDPETGNTAYTQKFMDRVTITADKSTSTAYMELSSLRSEDTAVYYCTRGYSFTYWGQGTLVTVSS
VL: DIVMTQTPLSLPVTPGEPASISCRSSQNIVHSNGNTYLQWYLQKPGQSPQLLIFKVSNRFSGVPDRFSGSGSGTDFTLKISRVEAEDVGVYYCFQGSHVPFTFGQGTKLEIK
Turning to B8, the OD450 nm in experiment [1] was found to be 0.413; in [2], 2.57; in experiment [4] it was 2.44; in experiment [5] it was 2.51; in [6], 1.22; in experiment [7] it was 0.175. For the same molecule, the results for the OD450 nm in experiment [8] and in [9] were 2.16 and 2.58, respectively. The molecule further yielded an EC50 in experiment [3] of 1.32 nM. This molecule also yielded a Max MFI in experiment [3] of 29600 MFI.

B9: hAb007LH1L1b (antibody, human IgG1, V domains shown)
VH: EVQLVQSGAEVKKPGSSVKVSCKASGYTFSDYEMHWVRQAPGQGLEWMGTIDPETGNTAYNQKFKGRVTITADKSTSTAYMELSSLRSEDTAVYYCTRPYSLTYWGQGTLVTVSS
VL: DIVMTQTPLSLPVTPGEPASISCRSSQSFVHSNRDTYLQWYLQKPGQSPQLLIYKVSNRFSGVPDRFSGSGSGTDFTLKISRVEAEDVGVYYCFQGSHVPYTFGQGTKLEIK
As to B9, the OD450 nm was found to be 0.128 in experiment [1]; 2.39 in experiment [2]; 2.37 in experiment [4]; 2.54 in experiment [5]; 0.305 in experiment [6]; 0.071 in experiment [7]. Further, the results for the OD450 nm in [8] and in experiment [9] were 0.958 and 1.97, respectively.

B10: hAb003LH3L1a (antibody, human IgG1, V domains shown)
VH: EVQLVQSGAEVKKPGSSVKVSCKASGYRFTDYEMHWVRQAPGQGLEWMGTIDPETGNTAYTQKFMDRVTLTADKSTSTAYMELSSLRSEDTAVYYCTRGYSFTYWGQGTLVTVSS
VL: DIVMTQTPLSLPVTPGEPASISCRSSQNIVHSDGNTYLQWYLQKPGQSPQLLIFKVSNRFSGVPDRFSGSGSGTDFTLKISRVEAEDVGVYYCFQGSHVPFTFGQGTKLEIK
Take B10: the OD450 nm in experiment [1] was found to be 0.202; in experiment [2], 2.38; in experiment [4], 2.3; in [5] it was 2.39; in experiment [6], 0.633; in experiment [7], 0.089. The figures for the OD450 nm in experiment [8] and in experiment [9] were 1.59 and 2.21, respectively. In [3], the EC50 is 3.27 nM. Moreover, the Max MFI in [3] amounted to 24500 MFI.

B11: hAb003LH3L1 (antibody, human IgG1, V domains shown)
VH: EVQLVQSGAEVKKPGSSVKVSCKASGYRFTDYEMHWVRQAPGQGLEWMGTIDPETGNTAYTQKFMDRVTLTADKSTSTAYMELSSLRSEDTAVYYCTRGYSFTYWGQGTLVTVSS
VL: DIVMTQTPLSLPVTPGEPASISCRSSQNIVHSNGNTYLQWYLQKPGQSPQLLIFKVSNRFSGVPDRFSGSGSGTDFTLKISRVEAEDVGVYYCFQGSHVPFTFGQGTKLEIK
Take B11: the OD450 nm in experiment [1] worked out at 0.357; in experiment [2] it was 2.36; in experiment [4], 2.36; in experiment [5] it was 2.53; in experiment [6], 0.963; in [7] it was 0.16. Further, the OD450 nm in experiment [8] amounted to 1.85; in experiment [9], 2.22. The molecule further yielded an EC50 in [3] of 1.58 nM. Besides, the Max MFI in [3] is 30900 MFI.

B12: hAb007LH2L1a (antibody, human IgG1, V domains shown)
VH: EVQLVQSGAEVKKPGSSVKVSCKASGYTFTDYEMHWVRQAPGQGLEWMGTIDPETGNTAYNQKFKGRVTITADKSTSTAYMELSSLRSEDTAVYYCTRPYSLTYWGQGTLVTVSS
VL: DIVMTQTPLSLPVTPGEPASISCRSSQSFVHSDGDTYLQWYLQKPGQSPQLLIYKVSNRFSGVPDRFSGSGSGTDFTLKISRVEAEDVGVYYCFQGSHVPYTFGQGTKLEIK
Turning to B12, the OD450 nm in [1] worked out at 0.093; in [2], 2.1; in experiment [4] it was 2.39; in experiment [5] it was 2.45; in experiment [6], 0.182; in [7], 0.065. For the same molecule, the OD450 nm in experiment [8] is 0.468; in experiment [9], 1.41.
